Measured values taken from US20110086089.
Residue numbers refer to the chain shown, from its start. Names and notes keep the numbering of the source.

B1: recombinant active His-tagged CK2-alpha-prime/beta (protein)
chain 1: MPGPAAGSRARVYAEVNSLRSREYWDYEAHVPSWGNQDDYQLVRKLGRGKYSEVFEAINITNNERVVVKILKPVKKKKIKREVKILENLRGGTNIIKLIDTVKDPVSKTPALVFEYINNTDFKQLYQILTDFDIRFYMYELLKALDYCHSKGIMHRDVKPHNVMIDHQQKKLRLIDWGLAEFYHPAQEYNVRVASRYFKGPELLVDYQMYDYSLDMWSLGCMLASMIFRREPFFHGQDNYDQLVRIAKVLGTEELYGYLKKYHIDLDPHFNDILGQHSRKRWENFIHSENRHLVSPEALDLLDKLLRYDHQQRLTAKEAMEHPYFYPVVKEQSQPCADNAVLSSGLTAAR
chain 2: not shown
B2: catalytically-inactive kinase-dead CK2-alpha-prime (kd.CK2-alpha-prime), K69M (protein)
chain: B1 chain 1 with K69M

Tests used:
[1] = molecular target: p27.T187A (recombinant, His-tagged)
[2] = molecular target: p27.Pi-S83, p27 pre-phosphorylated in vitro by CK2-alpha-prime at S83
[3] = molecular target: p27.Pi-T187, p27 pre-phosphorylated in vitro by CK2-alpha-prime at T187
[4] = molecular target: p27.Pi-S83/T187, p27 pre-phosphorylated in vitro by CK2-alpha-prime at S83 and T187
[5] = molecular target: recombinant His-tagged wt.p27
[6] = molecular target: p27.S83A (recombinant, His-tagged)
[7] = molecular target: p27deltaPi (p27.S83A/T187A; recombinant, His-tagged)
[8] = molecular target: phosphomimicking mutant p27.S83D/T187D (recombinant, His-tagged)
phosphomimicking mutant p27.S83D/T187D (recombinant, His-tagged), sequence (chain, as listed by the source S83D T187D): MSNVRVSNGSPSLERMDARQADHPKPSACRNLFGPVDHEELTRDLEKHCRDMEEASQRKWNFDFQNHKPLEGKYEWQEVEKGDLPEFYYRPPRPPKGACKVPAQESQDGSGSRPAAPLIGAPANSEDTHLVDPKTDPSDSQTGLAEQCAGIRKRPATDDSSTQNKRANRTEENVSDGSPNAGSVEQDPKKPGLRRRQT

p27.S83A (recombinant, His-tagged), sequence (chain, as listed by the source S83A): as the sequence (chain, as listed by the source S83D T187D) above, with D83A, D187T counted along it
p27.Pi-T187, p27 pre-phosphorylated in vitro by CK2-alpha-prime at T187, sequence (chain, as listed by the source): as the sequence (chain, as listed by the source S83D T187D) above, with D83A, D187T counted along it
p27deltaPi (p27.S83A/T187A; recombinant, His-tagged), sequence (chain, as listed by the source S83A T187A): as the sequence (chain, as listed by the source S83D T187D) above, with D83A, D187A counted along it

| Protein | reduction in phosphorylation by CK2-alpha-prime [1] | recombinant CK2-alpha-prime activity in vitro (32P incorporated into histone H1) [2] | recombinant CK2-alpha-prime activity in vitro (32P incorporated into histone H1) [3] | recombinant CK2-alpha-prime activity in vitro (32P incorporated into histone H1) [4] | phosphorylation of p27 in in vitro kinase reactions (32P incorporated into p27) [5] | recombinant CK2-alpha-prime activity in vitro (32P incorporated into histone H1) [5] | reduction in phosphorylation by CK2-alpha-prime [6] | phosphorylation of p27 in in vitro kinase reactions (32P incorporated into p27) [7] | recombinant CK2-alpha-prime activity in vitro (32P incorporated into histone H1) [8] |
| --- | --- | --- | --- | --- | --- | --- | --- | --- | --- |
| B1 | The S83A and T187A point mutants exhibited a 68% and 27% reduction in phosphorylation by CK2-alpha-prime, respectively | an incremental loss of p27 inhibitory activity towards CK2-alpha-prime when compared to wt.p27 | an incremental loss of p27 inhibitory activity towards CK2-alpha-prime when compared to wt.p27 | Simultaneous phosphorylation of S83/T187 in p27.Pi-S83/T187 or introducing phosphomimicking mutations in p27.S83D/T187D abolished the ability of p27 to inhibit CK2-alpha-prime | Wt.p27 was phosphorylated by CK2-alpha-prime | Wt.p27 completely inhibited recombinant CK2-alpha-prime activity in vitro | The S83A and T187A point mutants exhibited a 68% and 27% reduction in phosphorylation by CK2-alpha-prime, respectively | CK2-alpha-prime failed to phosphorylate p27deltaPi containing double-substituted mutations (S83A/T187A) | Simultaneous phosphorylation of S83/T187 in p27.Pi-S83/T187 or introducing phosphomimicking mutations in p27.S83D/T187D abolished the ability of p27 to inhibit CK2-alpha-prime |
| B2 | – | – | – | – | Wt.p27 was phosphorylated by CK2-alpha-prime but not catalytically-inactive kinase-dead CK2-alpha-prime (kd. CK2-alpha-prime) | – | – | – | – |
